Measured values from patent publication US20140370026A1 (TRUSTEES OF PRINCETON UNIVERSITY, published 2014).

T1: human CMV glycoprotein gM (UL100-coded) (human CMV, UniProt P16733 1-372)
T1 sequence: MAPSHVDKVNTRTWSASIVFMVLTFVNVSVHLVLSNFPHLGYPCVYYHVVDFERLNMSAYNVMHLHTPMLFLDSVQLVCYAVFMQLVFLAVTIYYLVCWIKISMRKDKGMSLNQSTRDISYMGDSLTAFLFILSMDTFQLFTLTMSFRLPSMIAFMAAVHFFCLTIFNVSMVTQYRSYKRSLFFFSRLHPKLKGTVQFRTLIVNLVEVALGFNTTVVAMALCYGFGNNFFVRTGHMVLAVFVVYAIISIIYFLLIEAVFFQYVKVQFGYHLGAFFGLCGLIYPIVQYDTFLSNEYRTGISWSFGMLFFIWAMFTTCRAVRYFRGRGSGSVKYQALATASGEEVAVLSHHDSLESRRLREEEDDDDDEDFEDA

B1: human CMV glycoprotein gN (UL73-coded) (other)
chain: NNSSTSTSATTSKSSASVSTTKLTTVATTSATTTTTTTLSTTSTKLSSTTHDPNVMRRHANDDFYKAHCTSHMYELSLSSFAAWWTMLNALILMGAFCIVLRHCCFQNFTATTTKGY
notes: also called ~60-kDa protein
B2: human CMV glycoprotein gO (UL74-coded) (other)
chain: KVMSKALYNRPWRGLVLSKIGKYKLDQLKLEILRQLETTISTKYNVSKQPVKNLTMNMTEFPQYYILAGPIQNYSITYLWFDFYSTQLRKPAKYVYSQYNHTAKTITFRPPPCGTVPSMTCLSEMLNVSKRNDTGEQGCGNFTTFNPMFFNVPRWNTKLYVGPTKVNVDSQTIYFLGLTALLLRYAQRNCTHSFYLVNAMSRNLFRVPKYINGTKLKNTMRKLKRKQAPVKEQFEKKAKKTQSTTTPYFSYTTSAALNVTTNVTYSITTAARRVSTSTIAYRPDSSFMKSIMATQLRDLATWVYTTLRYRQNPFCEPSRNRTAVSEFMKNTHVLIRNETPYTIYGTLDMSSLYYNETMFVENKTASDSNKTTPTSPSMGFQRTFIDPLWDYLDSLLFLDEIRNFSLRSPTYVNLTPPEHRRAVNLSTLNSLWWWLQ
B3: human CMV pUL128 (other)
chain: EECCEFINVNHPPERCYDFKMCNRFTVALRCPDGEVCYSPEKTAEIRGIVTTMTHSLTRQVVHNKLTSCNYNPLYLEADGRIRCGKVNDKAQYLLGAAGSVPYRWINLEYDKITRIVGLDQYLESVKKHKRLDVCRAKMGYMLQ
notes: also called UL128 protein; 16-kDa protein

Legend:
[1] = biological target: T1, human CMV glycoprotein gM (UL100-coded); assay: co-immunoprecipitation with anti-gM IMP91-3/1
[2] = biological target: human CMV glycoprotein gH (UL75-coded) (human CMV, UniProt P12824 24-743); assay: co-immunoprecipitation with anti-gH 14-4b
[3] = biological target: T2, human CMV pUL130 (human CMV, UniProt P16772 26-214); assay: co-immunoprecipitation with anti-gO from radiolabeled infected MRC-5 lysates (FIG. 3A)
T2 construct: also called UL130 protein; 33- to 35-kDa protein

[4] = biological target: B2; assay: as above

Question: Does B1 bind [1]?
Answer: binds

Question: Does B2 bind [2]?
Answer: binds

Question: Does B2 bind [3]?
Answer: no binding

Question: Does B3 bind [4]?
Answer: no binding
